For one substance, EC50 (read off the curve) results are on record in patent US20250101135A1.

The target of experiment [1] is mouse 4-1BB on activated mouse splenocytes (mouse) (UniProt P20334). As to the kind of experiment: flow cytometry, activated mouse splenocytes, CD8+ T cells, PE anti-human IgG Fc secondary, MFI baseline corrected.
Experiment [2] shares this target. As to the kind of experiment: flow cytometry, activated mouse splenocytes, CD4+ T cells, PE anti-human IgG Fc secondary, MFI baseline corrected.

Sequence of mouse 4-1BB on activated mouse splenocytes (mouse) (P20334 24-256): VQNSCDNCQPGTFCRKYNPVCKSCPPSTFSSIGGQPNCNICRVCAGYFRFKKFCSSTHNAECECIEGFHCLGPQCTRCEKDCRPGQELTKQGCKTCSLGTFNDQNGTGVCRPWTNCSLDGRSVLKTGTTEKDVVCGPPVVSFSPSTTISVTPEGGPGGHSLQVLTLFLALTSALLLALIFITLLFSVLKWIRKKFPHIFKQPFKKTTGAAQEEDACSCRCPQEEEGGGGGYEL

As to “anti-mouse CD137-specific human IgG1 P329G LALA antibody (clone Lob12.3)”, the EC50 (read off the curve) in experiment [1] turned out to be 0.09 nM; in experiment [2], 0.08 nM.
